This is an account of results in US10077436B2, “Beta-glucosidase enzymes for increased biomass saccharification” (Edeniq, Inc., priority 2013, dated 2018).

The term Km denotes the substrate concentration at which the rate is half of its maximum. By Vmax is commonly meant the rate approached at saturating substrate. One may read the kcat as the maximal rate divided by the concentration of active sites. The term kcat/Km denotes the turnover number divided by the Michaelis constant.

Substrate in data set [1]: O=[N+]([O-])c1ccc(O[C@@H]2O[C@H](CO)[C@@H](O)[C@H](O)[C@H]2O)cc1
In words: BG kinetics, pNPG hydrolysis assay with glucose as competitive inhibitor, yEdQ745-BG. It counts as biochemical, Aspergillus niger. The settings on record: other: pNPG substrate, pH 5.0, 50° C. The text has this: (§1) Accordingly, in some embodiments, the unmodified form of the beta-glucosidase is a wild-type or a naturally occurring beta-glucosidase, such as, for example, a fungal beta-glucosidase. The full nucleic acid and amino acid sequence for numerous fungal beta-glucosidases are available. The amino acid sequence of A. niger beta-glucosidase is provided as SEQ ID NO:2. Thus, in some embodiments, the unmodified beta-glucosidase is from an Aspergillus species. In some embodiments, the unmodified beta-glucosidase is from a Trichoderma species.
(§2) The beta-glucosidase (BG) gene from Aspergillus niger (Accession #CAB75696.1) was integrated into the TR3 yeast background at the T4U3 genomic site.
(§3) The BG-expressing strains were subsequently used in corn mash and corn stover simultaneous saccharification and fermentation (SSF) studies using flask scale and pilot plant fermentations. A 12-gallon corn stover fermentation was performed at 40° C. in which the beta-glucosidase secreting yeast strain was co-inoculated with three other engineered yeast strains individually expressing endoglucanase II, CBH1, and CBHII. Surviving TR3 Saccharomyces cerevisiae yeast strains individually expressing BG, EGII, CBH1 or CBH2 were recovered by plating onto solid medium. A clonal population of BG-secreting yeast was isolated and the BG gene integration confirmed. This strain is referred to herein as yEdQ745 and comprises the wild-type BG gene. The BG sequence in the Tau3 integration cassette was used for subsequent mutagenesis experiments.
(§4) The kinetic properties of beta glucosidase are important for cellulosic hydrolysis, since in commercial situations a wide range of substrate concentrations and different product inhibition conditions will be encountered. In this example, a Michaelis-Menten kinetics model was used to describe BG kinetics. To determine these kinetic properties, BG activity assays using standard substrates pNPG and cellobiose were employed. yEdQ745-BG (wild type) and yEdQ885-BG (improved), were compared with two commercial BGs, A-BG (Accellerase®) BG from Dupont) and S-BG (Novozymes SP188 from Sigma).
BG activity assay using pNPG is one of the two commonly used standard assays to measure BG activity, which utilizes hydrolysis of p-nitrophenyl-β-D-glucopyranoside (pNPG) by BG into a yellow colored product, p-nitrophenol (pNP), that has a strong absorbance at 405 nm. One pNPG unit is defined as the amount of enzyme that produces 1 μmol of pNP per min. […] The reaction was then terminated by adding 100 μL of 0.25 M sodium carbonate, and the amount of pNP produced was determined by measuring absorbance at 405 nm using a predetermined calibration curve. […]

Substrate in data set [2]: OC[C@H]1O[C@@H](O[C@H]2[C@H](O)[C@@H](O)C(O)O[C@@H]2CO)[C@H](O)[C@@H](O)[C@@H]1O
In words: BG kinetics, cellobiose hydrolysis assay (HPLC) with glucose as competitive inhibitor, yEdQ745-BG. It counts as biochemical, Aspergillus niger. The settings on record: other: cellobiose substrate, pH 4.8, 50° C.
From the text: as §1, §2, §3, §4
BG activity assay using cellobiose is the other standard assay to measure BG or cellobiase activity, which utilizes hydrolysis of cellobiose by cellobiase into two molecules of glucose, the last step of enzymatic hydrolysis of cellulose. One cellobiase unit (commonly termed as CBU) is defined as the amount of enzyme that converts […] of cellobiose or produces 2 μmol of glucose per min. Briefly, to determine BG activity, 25 μL of diluted enzyme in 50 mM citrate buffer (pH 4.8) equilibrated to 50° C. was mixed with 25 μL cellobiose (or cellobiose/glucose mixture for the kinetic study) to start the reaction. […]

B1: Aspergillus niger beta-glucosidase, wild type, yEdQ745-BG (CAB75696.1, SEQ ID NO:2) (Aspergillus niger) (protein)
chain: DELAYSPPYYPSPWANGQGDWAQAYQRAVDIVSQMTLDEKVNLTTGTGWELELCVGQTGGVPRLGVPGMCLQDSPLGVRDSDYNSAFPAGMNVAATWDKNLAYLRGKAMGQEFSDKGADIQLGPAAGPLGRSPDGGRNWEGFSPDPALSGVLFAETIKGIQDAGVVATAKHYIAYEQEHFRQAPEAQGFGFNISESGSANLDDKTMHELYLWPFADAIRAGAGAVMCSYNQINNSYGCQNSYTLNKLLKAELGFQGFVMSDWAAHHAGVSGALAGLDMSMPGDVDYDSGTSYWGTNLTISVLNGTVPQWRVDDMAVRIMAAYYKVGRDRLWTPPNFSSWTRDEYGYKYYYVSEGPYEKVNQYVNVQRNHSELIRRIGADSTVLLKNDGALPLTGKERLVALIGEDAGSNPYGANGCSDRGCDNGTLAMGWGSGTANFPYLVTPEQAISNEVLKHKNGVFTATDNWAIDQIEALAKTASVSLVFVNADSGEGYINVDGNLGDRRNLTLWRNGDNVIKAAASNCNNTIVVIHSVGPVLVNEWYDNPNVTAILWGGLPGQESGNSLADVLYGRVNPGAKSPFTWGKTREAYQDYLVTEPNNGNGAPQEDFVEGVFIDYRGFDKRNETPIYEFGYGLSYTTFNYSNLEVQVLSAPAYEPASGETEAAPTFGEVGNASDYLYPSGLQRITKFIYPWLNGTDLEASSGDASYGQDSSDYLPEGATDGSAQPILPAGGGPGGNPRLYDELIRVSVTIKNTGKVAGDEVPQLYVSLGGPNEPKIVLRQFERITLQPSEETKWSTTLTRRDLANWNVEKQDWEITSYPKMVFVGSSSRKLPLRASLPTVH
notes: strain yEdQ745
For the protein B1, in data set [1], the Michaelis constant (Km) stood at 640 ± 60 µM, the Vmax was determined as 4.17 µmol/min/mg, the catalytic constant (kcat) came out at 8.34 s⁻¹ and the kcat/Km was found to be 13000 M⁻¹ s⁻¹. For the same protein, in data set [2], the Km came to 1450 ± 290 µM, the maximal velocity (Vmax) turned out to be 4.36 µmol/min/mg, the kcat was 8.72 s⁻¹ and the specificity constant (kcat/Km) is 6010 M⁻¹ s⁻¹.
